The assay has as its target SARS-CoV papain-like protease (PLpro), trypsin-trimmed product of P-PLpro(C2)-His6 (SARS-CoV).

As to “ISG15-AMC (full-length) (from UniProt P05161 1-157)”, the kcat/KM of hydrolysis of ISG15-AMC by PLpro (fluorescence, pH 7.8, 25 °C) turned out to be 602000 M⁻¹ s⁻¹.
